Publication doi:10.1101/813527

Assays:
[1] = target: GFP-WT-SAP (SAF-A SAP domain) (UniProt Q00839); assay: EMSA
[2] = target: GFP-S14D S26D-SAP (phosphomimetic SAF-A SAP domain) (UniProt Q00839); assay: EMSA

AATTCAGAAAATAATAAAATAAAACTAGCTATTTTATATTTTTTC (double strand) [AT-rich SAR DNA]
Kd [1]: 16.5 µM
Kd [2]: > 75 µM
